The subject of data set [1] is Ac-Thr-Ile-Nle-Nle-Gln-Arg-NH2 (SEQ ID NO 1).
The subject of data set [2] is 2-aminobenzoyl-Thr-Ile-Nle-Phe(p-NO2)-Gln-Arg-NH2 (SEQ. ID NO. 4).

As for “[(NHCH2COSCH2CO)^51-52 Aba^67,95] HIV-1 PR”, in data set [1], the “cleavage of the peptide substrate (reverse phase HPLC; products identified by ion spray mass spectrometry)” value is “The peptide products were identified by ion spray mass spectrometry as (H)-Nle-Gln-Arg. NH2 (early eluting) and Ac-Thr-Ile-Nle-(OH) (late eluting)”. In data set [2], the “fluorogenic assay (fluorescence against time of incubation)” value was “showed identical activities”.
In the case of {Aba^67,95,167,195} HIV-1 PR, the “fluorogenic assay (fluorescence against time of incubation)” value in data set [2] was “showed identical activities”.

These data come from patent US6476190.
